Laboratory results: patent publication US20080279856A1, “Inhibition of Bradykinin Release” (Novo Nordisk Pharmaceuticals, Inc., priority 1999, published 2008)

Assays:
[1] = system: EC monolayers; test: F-actin distribution in EC (FITC-phalloidin staining); type: cell-based, human, bovine; conditions: HBP 75 μg/ml, 15 min
Procedure: For analysis of F-actin distribution in EC in response to stimulation with HBP, confluent EC monolayers grown on Biomatrix coated coverslips are incubated with HBP or vehicle alone at 37° C. for 15 min. The monolayers are washed twice in culture medium and fixed in 3.7% formaldehyde in PBS for 10 min at room temperature. EC are permeabilized with 0.2% Triton® X-100 in PBS (1 min at 4° C.), washed twice and stained for actin filaments with FITC-conjugated phalloidin for 20 min at 37° C. The endothelial cells are again washed three times in PBS and viewed in a laser scanning confocal microscope.

[2] = system: HUVEC or BAEC monolayers; test: EC intracellular free Ca2+ (fluo-3/AM, confocal microscopy); type: cell-based, human, bovine; conditions: HBP 75 μg/ml
Procedure: The Ca^2+ sensitive fluorescent probe fluo-3/AM is used for determination of changes in EC intracellular free Ca^2+. Confluent HUVEC or BAEC monolayers cultured on Biomatrix I coated filters are incubated with a Fluo-3/AM solution (3 μM in HBSS containing 2% FCS and […] HEPES), added to both the apical and basolateral surface, for 30 min at 37° C. The monolayers are washed three times and incubated with fresh HBSS in the dark for 20 min at room temperature before use to allow complete hydrolysis of the dye ester to its calcium sensitive free acid form. EC are stimulated with HBP added to the apical surface. Changes in EC Ca^2+i in response to HBP stimulation are measured through continuous registration of fluorescence intensity with a laser-scanning confocal imaging system (Insight Plus; Meridian Instruments Inc., Okemon, Mich.).

[3] = system: endothelial cells and fibroblasts; conditions: cited from earlier work
[4] = system: rat insulinoma cells; conditions: IL-1 induced; cited from earlier work

B1: HBP: Native human heparin-binding protein, mature form with the amino acid sequence SEQ ID NO:1 (protein, listed as Homo sapiens)
chain: IVGGRKARPRQFPFLASIQNQGRHFCGGALIHARFVMTAASCFQSQNPGVSTVVLGAYDLRRRERQSRQTFSISSMSENGYDPQQNLNDLMLLQLDREANLTSSVTILPLPLQNATVEAGTRCQVAGWGSQRSGGRLSRFPRFVNVTVTPEDQCRPNNVCTGVLTRRGGICNGDGGTPLVCEGLAHGVASFSLGPCGRGPDFFTRVALFRDWIDGVLNNPGPGPA
F-actin content and distribution [1]: substantial changes in F-actin content and distribution | change in EC cytosolic Ca2+ (fluo-3 fluorescence intensity) [2]: rapid increase in fluorescence intensity | time to peak of Ca2+ fluorescence [2]: ≤ 1 min | cell contraction [3]: induce contraction | apoptosis [4]: rescues rat insulinoma cells from IL-1 induced apoptosis
